In patent publication US20110039770A1 (PHARMAGAP, published 2011):
Where no end group is shown, it is not given here.

B1: PRE 12 (peptide)
peptide: Ac-KDAQNLI-NH2
notes: Ac-KDAQNLI-NH2; also called peptide PRE 12
B2: PRE 13 (peptide)
peptide: Ac-RDAQNLI-NH2
notes: Ac-RDAQNLI-NH2; also called peptide PRE 13

What was measured:
[1] = target: T1, PKC-βI (purified isoform) (Homo sapiens (Human), UniProt P05771 2-671); assay: competitive ELISA, coated purified PKC-βI, vs anti-PKC βI (SC-209); PRE 200 µM
T1 construct: also called PKC-beta I; PKC beta 1
T1 sequence (P05771 2-671 limits assumed): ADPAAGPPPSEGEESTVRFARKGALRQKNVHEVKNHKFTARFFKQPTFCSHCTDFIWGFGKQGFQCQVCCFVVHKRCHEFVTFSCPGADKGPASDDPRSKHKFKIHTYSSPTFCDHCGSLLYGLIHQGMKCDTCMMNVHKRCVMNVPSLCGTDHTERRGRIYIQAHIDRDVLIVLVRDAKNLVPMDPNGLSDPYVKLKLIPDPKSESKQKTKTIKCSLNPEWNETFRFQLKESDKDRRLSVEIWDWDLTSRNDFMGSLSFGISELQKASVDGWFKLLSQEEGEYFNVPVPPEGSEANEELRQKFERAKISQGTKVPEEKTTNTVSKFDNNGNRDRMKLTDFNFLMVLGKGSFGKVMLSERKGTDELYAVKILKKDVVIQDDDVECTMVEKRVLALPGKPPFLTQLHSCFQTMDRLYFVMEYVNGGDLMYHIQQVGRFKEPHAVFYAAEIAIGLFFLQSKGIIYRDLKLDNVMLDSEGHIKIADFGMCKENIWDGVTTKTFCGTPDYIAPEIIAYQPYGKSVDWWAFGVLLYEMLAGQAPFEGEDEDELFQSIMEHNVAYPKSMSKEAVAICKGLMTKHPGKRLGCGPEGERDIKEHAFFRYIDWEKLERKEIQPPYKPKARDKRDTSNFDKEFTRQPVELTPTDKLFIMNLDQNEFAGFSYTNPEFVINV
Protocol: (§1) Greiner 96 well ELISA plates were coated with the appropriate PKC isoform diluted in PBSN (PBS with Calcium/Magnesium+0.05% Sodium azide w/w). 50 μL/well at 250 ng/mL was used. Control wells contained PBSN only. Plates were incubated overnight at 4° C.
(§2) The plates were washed 3 times with 200 μL of dH₂O per well, then 100 μL of blocking solution was added per well and the plate incubated for 1 h at 37° C. The washing steps with dH₂O were repeated and 50 μL of the appropriate PRE solution (PRE stock solution [20 mM in DMSO] diluted in PBSN) was added and the plate incubated for 1 h at room temperature.
(§3) 50 μL of 1:1000 dilution of Alkaline Phosphatase (AP) conjugated antibody (anti-rabbit for all except zeta, which was anti-goat) was then added and the plate incubated for 1 h at room temperature. Washing with dH₂O was then repeated. Finally, 100 μL of pNPP solution in pNPP buffer (2 mM MgCl₂, 100 mM Sodium bicarbonate in water, pH 9.8) was added to all wells and incubated for 8 minutes for α, βI, βII ε, and ζ, or for 15-20 mins for δ (until sufficient coloration is observed). The reaction was stopped by addition of Stop solution (2N NaOH) and the absorbance at 405 nm was read on a Galaxy Plate reader.

[2] = target: T2, PKC-βII (purified isoform) (Homo sapiens (Human), UniProt P05771 2-621); assay: competitive ELISA, coated purified PKC-βII, vs anti-PKC βII (SC-210); PRE 200 µM
T2 construct: also called PKC-beta II; PKC beta 2
T2 sequence (P05771 other isoform, or with tags, fused parts or gaps limits assumed): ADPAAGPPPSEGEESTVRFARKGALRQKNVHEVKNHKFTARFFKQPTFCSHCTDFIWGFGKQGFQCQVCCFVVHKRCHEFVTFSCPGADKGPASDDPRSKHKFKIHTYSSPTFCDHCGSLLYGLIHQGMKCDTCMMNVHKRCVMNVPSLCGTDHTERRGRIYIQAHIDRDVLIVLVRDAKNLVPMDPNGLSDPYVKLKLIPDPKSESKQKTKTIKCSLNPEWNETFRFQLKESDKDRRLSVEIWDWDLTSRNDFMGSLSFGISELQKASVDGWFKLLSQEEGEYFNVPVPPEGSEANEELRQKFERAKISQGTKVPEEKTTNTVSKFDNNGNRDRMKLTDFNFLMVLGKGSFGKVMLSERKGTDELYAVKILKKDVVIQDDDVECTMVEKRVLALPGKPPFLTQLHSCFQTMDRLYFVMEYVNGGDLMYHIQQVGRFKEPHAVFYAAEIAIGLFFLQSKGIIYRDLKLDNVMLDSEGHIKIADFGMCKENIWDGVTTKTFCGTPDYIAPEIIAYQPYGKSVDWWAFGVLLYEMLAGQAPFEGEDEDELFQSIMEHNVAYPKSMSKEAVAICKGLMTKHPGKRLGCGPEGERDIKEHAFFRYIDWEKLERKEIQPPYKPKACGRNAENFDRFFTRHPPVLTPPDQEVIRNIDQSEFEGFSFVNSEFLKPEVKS
Protocol: as §1, §2, §3

[3] = target: T2, PKC-βII (purified isoform); assay: competitive ELISA, coated purified PKC-βII, vs anti-PKC βII (SC-210); PRE 100 µM
Protocol: as §1, §2, §3

[4] = target: T3, PKC-δ (purified isoform); assay: competitive ELISA, coated purified PKC-δ, vs anti-PKC δ (SC-213); PRE 200 µM
T3 construct: also called PKC-delta
T3 sequence (Q05655 whole entry, stated change not applied, canonical isoform): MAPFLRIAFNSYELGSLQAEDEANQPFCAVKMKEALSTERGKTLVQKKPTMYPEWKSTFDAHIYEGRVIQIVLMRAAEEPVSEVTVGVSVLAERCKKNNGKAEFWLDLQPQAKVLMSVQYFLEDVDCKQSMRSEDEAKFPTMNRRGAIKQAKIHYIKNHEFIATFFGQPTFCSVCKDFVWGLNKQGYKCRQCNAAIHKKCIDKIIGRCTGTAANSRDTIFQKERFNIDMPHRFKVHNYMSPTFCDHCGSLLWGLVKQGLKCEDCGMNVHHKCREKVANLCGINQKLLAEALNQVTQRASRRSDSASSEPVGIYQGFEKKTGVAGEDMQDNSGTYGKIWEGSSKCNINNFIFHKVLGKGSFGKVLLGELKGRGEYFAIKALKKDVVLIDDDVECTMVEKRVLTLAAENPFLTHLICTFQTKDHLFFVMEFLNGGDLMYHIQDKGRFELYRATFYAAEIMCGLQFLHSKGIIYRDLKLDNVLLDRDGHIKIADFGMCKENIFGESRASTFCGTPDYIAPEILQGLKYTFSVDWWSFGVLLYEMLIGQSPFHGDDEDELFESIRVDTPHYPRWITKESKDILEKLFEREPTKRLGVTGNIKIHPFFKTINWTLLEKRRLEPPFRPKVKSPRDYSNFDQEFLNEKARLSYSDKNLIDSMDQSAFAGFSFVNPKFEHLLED
Protocol: as §1, §2, §3

[5] = target: T4, PKC-α (purified isoform) (Homo sapiens (Human), UniProt P17252 2-672); assay: competitive ELISA, coated purified PKC-α, vs anti-PKC α (SC-208); PRE 50 µM
T4 construct: also called purified PKC-alpha; commercially purified PKC-alpha
Protocol: as §1, §2, §3

[6] = target: T1, PKC-βI (purified isoform); assay: competitive ELISA, coated purified PKC-βI, vs anti-PKC βI (SC-209); PRE 100 µM
Protocol: as §1, §2, §3

[7] = target: T3, PKC-δ (purified isoform); assay: competitive ELISA, coated purified PKC-δ, vs anti-PKC δ (SC-213); PRE 100 µM
Protocol: as §1, §2, §3

[8] = target: T3, PKC-δ (purified isoform); assay: competitive ELISA, coated purified PKC-δ, vs anti-PKC δ (SC-213); PRE 50 µM
Protocol: as §1, §2, §3

[9] = target: T4, PKC-α (purified isoform); assay: competitive ELISA, coated purified PKC-α, vs anti-PKC α (SC-208); PRE 100 µM
Protocol: as §1, §2, §3

[10] = target: T4, PKC-α (purified isoform); assay: competitive ELISA, coated purified PKC-α, vs anti-PKC α (SC-208); PRE 200 µM
Protocol: as §1, §2, §3

[11] = target: T1, PKC-βI (purified isoform); assay: competitive ELISA, coated purified PKC-βI, vs anti-PKC βI (SC-209); PRE 50 µM
Protocol: as §1, §2, §3

[12] = target: T2, PKC-βII (purified isoform); assay: competitive ELISA, coated purified PKC-βII, vs anti-PKC βII (SC-210); PRE 50 µM
Protocol: as §1, §2, §3

[13] = target: T5, PKC-ε (endogenous, IMR-32 lysate) (human, UniProt Q02156 1-737); assay: WB competition Protocol B, IMR-32 extract, vs anti-PKC-ε Ab; PKC-ε Band 1; 20 µg peptide
T5 construct: Band 1 and Band 2 (alternate splicing variants, not identified further) are kept under one molecule; the band is named in the assay field of each row; also called PKC-epsilon; PKC-ε Band 1
T5 sequence (looked up): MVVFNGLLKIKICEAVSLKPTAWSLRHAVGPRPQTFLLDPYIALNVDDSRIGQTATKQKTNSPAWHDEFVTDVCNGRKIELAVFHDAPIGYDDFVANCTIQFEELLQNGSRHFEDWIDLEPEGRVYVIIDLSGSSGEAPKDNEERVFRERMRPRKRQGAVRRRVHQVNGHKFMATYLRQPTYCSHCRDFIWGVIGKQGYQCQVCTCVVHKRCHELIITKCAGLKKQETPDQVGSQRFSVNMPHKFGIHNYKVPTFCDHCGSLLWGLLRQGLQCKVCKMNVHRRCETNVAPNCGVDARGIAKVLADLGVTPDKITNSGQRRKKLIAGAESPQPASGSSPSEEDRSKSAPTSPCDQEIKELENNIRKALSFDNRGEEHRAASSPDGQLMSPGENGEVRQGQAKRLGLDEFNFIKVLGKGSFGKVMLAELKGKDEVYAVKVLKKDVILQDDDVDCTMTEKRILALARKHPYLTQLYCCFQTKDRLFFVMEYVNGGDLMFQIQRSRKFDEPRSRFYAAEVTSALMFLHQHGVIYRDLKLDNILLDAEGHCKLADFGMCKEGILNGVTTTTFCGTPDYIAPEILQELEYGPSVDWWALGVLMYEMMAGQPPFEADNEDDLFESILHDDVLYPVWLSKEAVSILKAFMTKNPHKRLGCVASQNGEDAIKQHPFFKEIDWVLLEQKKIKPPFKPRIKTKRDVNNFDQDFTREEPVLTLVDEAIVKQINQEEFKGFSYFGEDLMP
Protocol: (§4) The ability of the peptides PRE 2 and PRE 3 (see Table 4) to interfere with the binding of a PKC-α-specific polyclonal antibody (Santa Cruz Biotechnology, Inc.) to PKC-α was determined using a modified version of the protocol outlined above in which the test peptide was added directly to the cell extract prior to electrophoresis at a concentration of either 5× or 15× the concentration of the protein applied to each well of the gel for the Western blots (20 μg).
(§5) Peptides PRE 2, PRE 3 and PRE 4 (see Table 4) were tested for their ability to interfere with the binding of isoform-specific polyclonal antibodies (Santa Cruz Biotechnology, Inc.) to […] using the general protocol described in Example 3. Two bands, representing alternate splicing variants of PKC-ε, were identified on the Western blot using this anti-PKC-ε antibody.

[14] = target: T5, PKC-ε (endogenous, IMR-32 lysate); assay: WB competition Protocol B, IMR-32 extract, vs anti-PKC-ε Ab; PKC-ε Band 2; 20 µg peptide
Protocol: as §4, §5

[15] = target: T5, PKC-ε (endogenous, IMR-32 lysate); assay: WB competition Protocol B, IMR-32 extract, vs anti-PKC-ε Ab; PKC-ε Band 2; 100 µg peptide
Protocol: as §4, §5

[16] = target: T5, PKC-ε (endogenous, IMR-32 lysate); assay: WB competition Protocol B, IMR-32 extract, vs anti-PKC-ε Ab; PKC-ε Band 1; 50 µg peptide
Protocol: as §4, §5

[17] = target: T5, PKC-ε (endogenous, IMR-32 lysate); assay: WB competition Protocol B, IMR-32 extract, vs anti-PKC-ε Ab; PKC-ε Band 1; 100 µg peptide
Protocol: as §4, §5

[18] = target: T5, PKC-ε (endogenous, IMR-32 lysate); assay: WB competition Protocol B, IMR-32 extract, vs anti-PKC-ε Ab; PKC-ε Band 2; 50 µg peptide
Protocol: as §4, §5

[19] = target: PKC-βII, purified isoform (UniProt P05771-2 1-673); assay: cell-based or functional assay
PKC-βII, purified isoform, sequence (P05771 other isoform, or with tags, fused parts or gaps limits assumed): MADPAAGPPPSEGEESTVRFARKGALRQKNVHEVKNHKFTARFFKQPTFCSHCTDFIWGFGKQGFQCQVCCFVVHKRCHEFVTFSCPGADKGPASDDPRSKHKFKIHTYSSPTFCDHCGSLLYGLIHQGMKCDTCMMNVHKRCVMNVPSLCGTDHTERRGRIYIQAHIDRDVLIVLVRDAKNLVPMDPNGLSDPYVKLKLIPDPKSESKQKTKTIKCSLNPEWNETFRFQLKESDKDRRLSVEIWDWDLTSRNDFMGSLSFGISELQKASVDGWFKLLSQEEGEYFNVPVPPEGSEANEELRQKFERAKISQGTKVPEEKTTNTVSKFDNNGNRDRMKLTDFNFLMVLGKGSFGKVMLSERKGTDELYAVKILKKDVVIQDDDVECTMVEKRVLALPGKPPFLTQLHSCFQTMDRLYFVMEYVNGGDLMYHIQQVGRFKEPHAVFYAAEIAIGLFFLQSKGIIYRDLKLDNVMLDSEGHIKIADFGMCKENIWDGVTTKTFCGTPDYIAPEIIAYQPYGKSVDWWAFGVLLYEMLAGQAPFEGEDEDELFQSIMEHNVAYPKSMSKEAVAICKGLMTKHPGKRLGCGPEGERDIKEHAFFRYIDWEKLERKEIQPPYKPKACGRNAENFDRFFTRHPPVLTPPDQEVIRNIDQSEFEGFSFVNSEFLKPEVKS

[20] = target: PKC-βI, purified isoform (UniProt P05771-1 1-671); assay: cell-based or functional assay
PKC-βI, purified isoform, sequence (P05771 whole entry, canonical isoform): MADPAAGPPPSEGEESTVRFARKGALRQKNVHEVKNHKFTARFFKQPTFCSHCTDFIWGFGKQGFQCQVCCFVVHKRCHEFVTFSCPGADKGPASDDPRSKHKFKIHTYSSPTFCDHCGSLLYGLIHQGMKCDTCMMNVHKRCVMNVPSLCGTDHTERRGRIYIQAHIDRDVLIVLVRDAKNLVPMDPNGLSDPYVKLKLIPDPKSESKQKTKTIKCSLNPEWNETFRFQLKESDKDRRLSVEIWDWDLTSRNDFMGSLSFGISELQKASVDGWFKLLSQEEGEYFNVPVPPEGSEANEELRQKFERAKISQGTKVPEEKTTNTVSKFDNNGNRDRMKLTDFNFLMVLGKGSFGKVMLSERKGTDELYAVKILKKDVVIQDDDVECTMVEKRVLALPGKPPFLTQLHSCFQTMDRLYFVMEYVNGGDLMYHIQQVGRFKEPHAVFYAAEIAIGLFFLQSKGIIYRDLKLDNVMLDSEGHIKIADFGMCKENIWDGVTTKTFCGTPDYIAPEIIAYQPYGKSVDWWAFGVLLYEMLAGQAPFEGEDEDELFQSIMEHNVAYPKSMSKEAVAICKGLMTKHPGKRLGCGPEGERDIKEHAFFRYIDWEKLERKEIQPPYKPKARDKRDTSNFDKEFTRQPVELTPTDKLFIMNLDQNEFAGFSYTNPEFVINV

[21] = target: T6, PKC-ε, purified isoform (UniProt Q02156 1-737); assay: cell-based or functional assay
T6 sequence (looked up): T5 sequence (looked up)

[22] = target: PKC-α, purified isoform (UniProt P17252 1-672); assay: cell-based or functional assay

| Binder | relative binding capacity (100-%n, DMSO subtracted) [1] | relative binding capacity (100-%n, DMSO subtracted) [2] | relative binding capacity (100-%n, DMSO subtracted) [3] | relative binding capacity (100-%n, DMSO subtracted) [4] | relative binding capacity (100-%n, DMSO subtracted) [5] | relative binding capacity (100-%n, DMSO subtracted) [6] | relative binding capacity (100-%n, DMSO subtracted) [7] | relative binding capacity (100-%n, DMSO subtracted) [8] | relative binding capacity (100-%n, DMSO subtracted) [9] | relative binding capacity (100-%n, DMSO subtracted) [10] | relative binding capacity (100-%n, DMSO subtracted) [11] | relative binding capacity (100-%n, DMSO subtracted) [12] | % Inhibition of PKC activity at 150 µM [19] | % Inhibition of PKC activity at 300 µM [19] | % Inhibition of PKC activity at 600 µM [19] | % Inhibition of PKC activity at 150 µM [20] | % Inhibition of PKC activity at 300 µM [20] | % Inhibition of PKC activity at 600 µM [20] | % Inhibition of PKC activity at 150 µM [21] | % Inhibition of PKC activity at 300 µM [21] | also measured |
| --- | --- | --- | --- | --- | --- | --- | --- | --- | --- | --- | --- | --- | --- | --- | --- | --- | --- | --- | --- | --- | --- |
| Ac-AKGIQEVKGGKDAQNLIGISI-NH2 (also called peptide PRE 5) [PRE 5] | 0% | 0% | 0% | 4.31% | 0% | 0% | 0% | 0.2% | 0% | 0% | 0% | 0% | – | – | – | – | – | – | – | – | – |
| B1 | 0% | 0% | 0% | 23.5% | 3.29% | 0% | 1.02% | 2.26% | 5.16% | 0% | 0.79% | 4.55% | – | – | – | – | – | – | – | – | – |
| B2 | 0% | 0% | 1.63% | 17.9% | 0% | 0% | 0.79% | 0% | 0% | 0% | 0% | 0% | – | – | – | – | – | – | – | – | – |
| Ac-AKGIQEVKGGDAQNLIGISI-NH2 (also called peptide PRE 3) [PRE 3] | 23% | – | – | 57% | 17.5% | 22.5% | 56% | 48.3% | 26.5% | 22.6% | 26% | – | – | – | – | – | – | – | – | – | Band Intensity [13]: 5.12; Inhibition (%) [13]: 99%; Relative Intensity (%) [13]: 0.12%; Band Intensity [14]: 0; Inhibition (%) [14]: 100%; Relative Intensity (%) [14]: 0%; Band Intensity [15]: 0; Inhibition (%) [15]: 100%; Relative Intensity (%) [15]: 0%; Band Intensity [16]: 0; Inhibition (%) [16]: 100%; Relative Intensity (%) [16]: 0%; Band Intensity [17]: 0; Inhibition (%) [17]: 100%; Relative Intensity (%) [17]: 0%; Band Intensity [18]: 0; Inhibition (%) [18]: 100%; Relative Intensity (%) [18]: 0% |
| FRRK(adenine PNA)FRL [compound PKI 3] | – | – | – | – | – | – | – | – | – | – | – | – | 31% | 83% | 81% | 37% | 76% | 80% | 38% | 53% | % Inhibition of PKC activity at 600 µM [21]: 68%; % Inhibition of PKC activity at 150 µM [22]: 47%; % Inhibition of PKC activity at 300 µM [22]: 51%; % Inhibition of PKC activity at 600 µM [22]: 82% |
| FRRCFRL [compound PKI 4] | – | – | – | – | – | – | – | – | – | – | – | – | 83% | 83% | 82% | 72% | 72% | 82% | 55% | 55% | % Inhibition of PKC activity at 600 µM [21]: 77%; % Inhibition of PKC activity at 150 µM [22]: 80%; % Inhibition of PKC activity at 300 µM [22]: 80%; % Inhibition of PKC activity at 600 µM [22]: 80% |
